From publication PMC4197836
Read-outs that look alike come from different tables or passages of the source.

Key:
Assay in all cases: AlphaScreen or HTRF
[1] = biological target: His6-tagged MLV IN (Moloney Murine Leukemia Virus)
[2] = biological target: His6-tagged MLV IN (Moloney Murine Leukemia Virus); remark: listed apart in the source
[3] = biological target: GST-tagged mBRD4ET (aa 601-685) (mouse) (UniProt Q9ESU6)

His6-tagged MLV IN (Moloney Murine Leukemia Virus), sequence (P03355 1331-1738 limits assumed): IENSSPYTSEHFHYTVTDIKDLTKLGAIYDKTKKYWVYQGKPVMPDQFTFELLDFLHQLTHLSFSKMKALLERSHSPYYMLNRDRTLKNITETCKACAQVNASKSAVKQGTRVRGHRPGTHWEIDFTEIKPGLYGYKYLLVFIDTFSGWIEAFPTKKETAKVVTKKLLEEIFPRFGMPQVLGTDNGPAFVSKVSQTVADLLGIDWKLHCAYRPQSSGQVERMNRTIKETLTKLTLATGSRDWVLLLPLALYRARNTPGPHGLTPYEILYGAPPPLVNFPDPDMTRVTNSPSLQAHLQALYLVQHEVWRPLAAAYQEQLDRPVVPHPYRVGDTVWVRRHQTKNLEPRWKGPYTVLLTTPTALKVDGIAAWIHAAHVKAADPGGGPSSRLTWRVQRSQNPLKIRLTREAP

Substance | Kd [1] [nM] | Kd [2] [nM] | Kd [3] [nM]
GST-tagged mBRD4_(ETSEED) (aa 601-721) (from UniProt Q9ESU6 601-721) (domain or fragment) | 58.7 | 8.56 | –
MBP-fused BRD2 ET domain (domain or fragment) | 0.6 | – | –
MBP-fused BRD4 ET domain (domain or fragment) | 0.41 | – | –
GST-tagged mBRD4ET (aa 601-685) (from UniProt Q9ESU6 601-685) (domain or fragment) | 8.56 | 58.7 | –
MBP-fused BRD3 ET domain (domain or fragment) | 0.97 | – | –
His6-tagged MLV IN (enzyme) | – | – | 56.7
